From PMC10384689

Substrate: Oc1ccc(/C=C/c2cc(O)cc(O)c2)cc1
Assay: purified protein
Details: PBS pH 7.4, 30 °C, 10 min, 10 uM FAD, 1 mM NADH, 1 uM HpaB, 1 uM HpaC, apparent

B1: EcHpaBC (E. coli 4HPA3H; HpaB + HpaC) (Escherichia coli) (protein)
chain: MKPEDFRASTQRPFTGEEYLKSLQDGREIYIYGERVKDVTTHPAFRNAAASVAQLYDALHKPEMQDSLCWNTDTGSGGYTHKFFRVAKSADDLRHERDAIAEWSRLSYGWMGRTPDYKAAFGCALGGTPGFYGQFEQNARNWYTRIQETGLYFNHAIVNPPIDRHLPTDKVKDVYIKLEKETDAGIIVSGAKVVATNSALTHYNMIGFGSAQVMGENPDFALMFVAPMDADGVKLISRASYEMVAGATGSPYDYPLSSRFDENDAILVMDNVLIPWENVLLYRDFDRCRRWTMEGGFARMYPLQACVRLAVKLDFITALLKKSLECTGTLEFRGVQADLGEVVAWRNTFWALSDSMCSEATPWVNGAYLPDHAALQTYRVLAPMAYAKIKNIIERNVTSGLIYLPSSARDLNNPQIDQYLAKYVRGSNGMDHVQRIKILKLMWDAIGSEFGGRHELYEINYSGSQDEIRLQCLRQAQSSGNMDKMMAMVDRCLSEYDQNGWTVPHLHNNDDINMLDKLLK
  Km: 670 ± 120 µM
  kcat: 0.0135 s⁻¹
  kcat/Km: 20 M⁻¹ s⁻¹
